# T1: ribosomal protein L10 from Sulfolobus solfataricus (Sulfolobus solfataricus, UniProt P96039 1-338)
# T1 sequence (looked up): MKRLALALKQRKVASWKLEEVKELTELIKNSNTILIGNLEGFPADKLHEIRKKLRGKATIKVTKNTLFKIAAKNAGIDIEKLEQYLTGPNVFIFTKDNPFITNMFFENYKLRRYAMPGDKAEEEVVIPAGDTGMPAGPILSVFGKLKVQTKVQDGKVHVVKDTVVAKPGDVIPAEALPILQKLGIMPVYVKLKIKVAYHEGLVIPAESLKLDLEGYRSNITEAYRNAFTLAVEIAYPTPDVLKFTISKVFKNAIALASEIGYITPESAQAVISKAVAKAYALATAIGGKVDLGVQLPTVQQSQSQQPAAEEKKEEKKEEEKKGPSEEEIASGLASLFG
# T2: ribosomal protein L10 from Methanococcus vannielii (Methanococcus vannielii, UniProt P15826 1-336)
# T2 sequence (looked up): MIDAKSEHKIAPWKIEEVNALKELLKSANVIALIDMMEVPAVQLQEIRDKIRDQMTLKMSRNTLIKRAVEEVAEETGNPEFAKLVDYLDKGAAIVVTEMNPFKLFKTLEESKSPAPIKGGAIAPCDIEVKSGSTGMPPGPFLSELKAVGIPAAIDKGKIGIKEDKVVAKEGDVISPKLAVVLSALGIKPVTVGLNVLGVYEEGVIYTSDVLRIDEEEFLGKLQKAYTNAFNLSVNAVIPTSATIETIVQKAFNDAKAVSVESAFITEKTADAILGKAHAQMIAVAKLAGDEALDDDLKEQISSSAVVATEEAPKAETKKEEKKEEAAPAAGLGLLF
# T3: ribosomal protein L10 from Thermus thermophilus (Thermus thermophilus, UniProt Q8VVE3 1-173)
# T3 sequence (looked up): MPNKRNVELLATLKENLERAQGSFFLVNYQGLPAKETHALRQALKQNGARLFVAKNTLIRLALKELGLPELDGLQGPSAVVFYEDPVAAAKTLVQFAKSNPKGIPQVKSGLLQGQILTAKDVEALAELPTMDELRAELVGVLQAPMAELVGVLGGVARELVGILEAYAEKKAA
# T4: ribosomal protein L10 from Methanococcus thermolithotrophicus (Methanococcus thermolithotrophicus, UniProt O52705 1-338)
# T4 sequence (looked up): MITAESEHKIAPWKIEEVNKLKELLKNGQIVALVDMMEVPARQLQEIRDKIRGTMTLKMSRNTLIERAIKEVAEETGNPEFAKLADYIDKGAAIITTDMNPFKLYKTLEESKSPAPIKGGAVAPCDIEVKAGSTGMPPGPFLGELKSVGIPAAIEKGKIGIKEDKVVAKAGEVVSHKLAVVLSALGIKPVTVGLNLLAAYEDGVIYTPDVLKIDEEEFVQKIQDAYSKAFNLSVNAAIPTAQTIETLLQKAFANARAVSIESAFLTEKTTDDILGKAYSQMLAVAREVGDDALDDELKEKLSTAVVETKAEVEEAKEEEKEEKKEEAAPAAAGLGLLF
# T5: ribosomal protein L10 from Methanococcus jannaschii (Methanococcus jannaschii, UniProt P54049 1-338)
# T5 sequence (looked up): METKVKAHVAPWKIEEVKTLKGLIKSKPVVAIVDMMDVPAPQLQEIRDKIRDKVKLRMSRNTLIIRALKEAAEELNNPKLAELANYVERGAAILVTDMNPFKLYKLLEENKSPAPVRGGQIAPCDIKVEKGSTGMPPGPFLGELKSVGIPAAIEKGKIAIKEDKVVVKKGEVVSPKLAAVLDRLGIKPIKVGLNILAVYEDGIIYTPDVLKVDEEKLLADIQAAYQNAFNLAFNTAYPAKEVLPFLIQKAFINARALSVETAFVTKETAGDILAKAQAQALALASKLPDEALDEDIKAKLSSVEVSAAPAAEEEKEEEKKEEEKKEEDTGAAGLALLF
# B1: ribosomal protein L12 from Sulfolobus solfataricus (natural protein, UniProt P96040 1-106, looked up)
# chain: MEYIYASLLLHSAKKEISEDALKNVLTAAGISVDEVRLKAVVAALKEVNIDEVLKNAAAMPVAVAAQPQATQAQPAAEEKKEEKKEEEKKGPSEEEIASGLASLFG
# B2: ribosomal protein L12 from Methanococcus vannielii (natural protein, UniProt P10623 1-99, looked up)
# chain: MEYIYAALLLNSANKEVTEEAVKAVLVAGGIEANDARVKALVAALEGVDIAEAIAKAAIAPVAAAAPVAAAAAPAEVKKEEKKEDTTAAAAAGLGALFM
# B3: ribosomal protein L12 from Thermus thermophilus (natural protein, UniProt Q8VVE2 1-125, looked up)
# chain: MALDIERIKEELSQATVLELKQLIDALKEAWGVTAAAPVAVAAAPAAGAAAAPAEEKTEFDVILKEAGAKKLEVIKELRAITGLGLKEAKDLAEKGGPVKEGVSKQEAEEIKKKLEAVGAVVELK
# B4: ribosomal protein L12 from Methanococcus thermolithotrophicus (natural protein, UniProt O52706 1-101, looked up)
# chain: MEYIYASLLLHSAGKEITEDAVKAVLSAAGVEVEDARVKALVAALEGVDIEEAIEKAAMPVAAAAAPAAAPAEEPKEEKKEEKKEEDTTAAAAAGLGALFG
# B5: ribosomal protein L12 from Methanococcus jannaschii (natural protein, UniProt P54048 1-102, looked up)
# chain: MEYIYAALLLHSAGKEITEDAIKAVLSAAGVEVDDARVKALVAGLEGVDIEEAIANAAMPVAAAPAAAAPAAAAEEKKEEEKKEEKKEEDTAAVAGLAALFG
# Columns and labels:
# [1] = molecular target: T1, ribosomal protein L10 from Sulfolobus …; assay: SEC
# [2] = molecular target: T1, ribosomal protein L10 from Sulfolobus …; assay: native gel or EMSA
# [3] = molecular target: T2, ribosomal protein L10 from …; assay: SEC
# [4] = molecular target: T2, ribosomal protein L10 from …; assay: native gel or EMSA
# [5] = molecular target: T3, ribosomal protein L10 from Thermus …; assay: SEC
# [6] = molecular target: T4, ribosomal protein L10 from …; assay: SEC
# [7] = molecular target: T4, ribosomal protein L10 from …; assay: native gel or EMSA
# [8] = molecular target: T5, ribosomal protein L10 from …; assay: native gel or EMSA
binder,measurement,setting,value
B1,stoichiometry N,[1],4 L12 per L10
same,stoichiometry N,[2],~4 L12 per L10
B2,stoichiometry N,[3],4 L12 per L10
same,stoichiometry N,[4],~4 L12 per L10
B3,stoichiometry N,[5],6 L12 per L10
B4,stoichiometry N,[6],4 L12 per L10
same,stoichiometry N,[7],~4 L12 per L10
B5,stoichiometry N,[8],~4 L12 per L10

# From PMC1635324 (Nucleic Acids Research, 2006)
